Test results published in US20120184713A1, “Compositions and Methods for Modulation of Bone Density and Biomineralization” (priority 2011, published 2012).

Target: T1, FAM20C (Mus musculus, UniProt Q5MJS3)
T1 construct: His (from vector pcDNA3.1/V5-His B) (C); made in house; host or cells: HEK293T
T1 sequence (Q5MJS3 88-579): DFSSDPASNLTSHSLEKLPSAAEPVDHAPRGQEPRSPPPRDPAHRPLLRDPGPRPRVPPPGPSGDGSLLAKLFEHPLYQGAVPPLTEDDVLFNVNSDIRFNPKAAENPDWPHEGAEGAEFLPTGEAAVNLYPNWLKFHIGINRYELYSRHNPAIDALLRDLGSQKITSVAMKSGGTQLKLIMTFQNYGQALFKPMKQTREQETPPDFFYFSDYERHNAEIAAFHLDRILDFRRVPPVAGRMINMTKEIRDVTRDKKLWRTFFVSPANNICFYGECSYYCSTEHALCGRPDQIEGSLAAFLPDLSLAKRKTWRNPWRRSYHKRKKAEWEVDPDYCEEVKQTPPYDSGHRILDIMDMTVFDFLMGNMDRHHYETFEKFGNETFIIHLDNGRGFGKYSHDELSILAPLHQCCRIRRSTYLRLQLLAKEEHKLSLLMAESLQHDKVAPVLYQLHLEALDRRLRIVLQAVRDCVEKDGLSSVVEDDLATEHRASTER
Experiment: FAM20C in vitro kinase assay with dephosphorylated alpha-Casein as substrate
Assay type: biochemical
Conditions: Casein as model substrate; 5 minute assays
Experimental: For FAM20C:V5 purification, pcDNA-FAM20C:V5 was transfected to HEK293T cells, and FAM20C:V5 was purified from conditioned media using anti-V5 agarose beads (Sigma). Condition media were incubated with anti-V5 affinity gel (Sigma) overnight at 4° C. Agarose beads were collected by centrifugation, and washed 5 times with TBS. Proteins were eluted using V5 peptides in TBS (Sigma, final concentration: 100 μg/ml). For purification of OPN:FLAG, BSP:FLAG, DMP1:FLAG, DSPP:FLAG and MEPE:FLAG, condition media were incubated with anti-FLAG M2 affinity gel (Sigma) overnight at 4° C. Agarose beads were collected by centrifugation, and washed 5 times with TBS. Purified quantification was performed on gels stained by SYPRO Ruby Protein Gel Stain (Invitrogen), using BSA as a standard.
FAM20C kinase assays were performed in 10 μl reactions, with 500 μM ATP, including 3 μCi (0.05 μM) of [gamma-^32P]ATP (6000 Ci/mmol, PerkinElmer), 50 mM Tris (pH 7.0), 10 mM MnCl2, 0.1% BSA, purified FAM20C:V5 (5 ng, […]), and dephosphorylated alpha-Casein (0.1 μg, Sigma). […] Radioactivity within the gels was detected using a Molecular Dynamics Phosphor Imager. For quantitation of gamma-^32P incorporation, bands were cut out of the gels using the Phosphor Imager pictures as a reference, and then counted by liquid scintillation using a Beckman Coulter LC6500. […]

V.: 0.7 μM ATP/min/mg FAM20C
B1: FAM20C: affinity purified V5-tagged mouse FAM20C, Golgi-localized protein kinase (protein)
chain: DFSSDPASNLTSHSLEKLPSAAEPVDHAPRGQEPRSPPPRDPAHRPLLRDPGPRPRVPPPGPSGDGSLLAKLFEHPLYQGAVPPLTEDDVLFNVNSDIRFNPKAAENPDWPHEGAEGAEFLPTGEAAVNLYPNWLKFHIGINRYELYSRHNPAIDALLRDLGSQKITSVAMKSGGTQLKLIMTFQNYGQALFKPMKQTREQETPPDFFYFSDYERHNAEIAAFHLDRILDFRRVPPVAGRMINMTKEIRDVTRDKKLWRTFFVSPANNICFYGECSYYCSTEHALCGRPDQIEGSLAAFLPDLSLAKRKTWRNPWRRSYHKRKKAEWEVDPDYCEEVKQTPPYDSGHRILDIMDMTVFDFLMGNMDRHHYETFEKFGNETFIIHLDNGRGFGKYSHDELSILAPLHQCCRIRRSTYLRLQLLAKEEHKLSLLMAESLQHDKVAPVLYQLHLEALDRRLRIVLQAVRDCVEKDGLSSVVEDDLATEHRASTER
modifications: left off: small tags and cut ends
turnover number (kcat): 52 per minute
